Laboratory results reported in patent US20260015423A1 (STAIDSON BIOPHARMA, published 2026).
Changes are numbered by the printed parent chain.

B1: chimeric anti-human PD-L1 antibody Mab 3-16 (antibody, human IgG1, kappa, V domains shown)
VH: DVQLVESGGGLVQPGGSRKLSCAASGFTFGGFGMHWVRQAPEKGLEWVAYITGDSSTIYYADRVRGRFTISRDNPRNILFLQMTSLGSEDTAMYYCVRGPPGTWAYWGQGTLVTVSA
VL: DIVLTQSPASLAVSLGQRATFSCRASESVEFYGTTLVQWYQQRPGQPPKLLIYGASNVESGVPARFTGSGSGTDFSLNIHPVEEDDIAMYFCQQIRKVPWTFGGGTKLEIRR
notes: Mouse variable domains on human IgG1 / kappa constant regions; also called parent antibody Mab 3-16
B2: chimeric anti-human PD-L1 antibody Mab 1-01 (antibody, human IgG1, kappa, V domains shown)
VH: EVQLQQSGPELVKPGASVKMSCKASGYSFSGYFLNWVKQSHGKSLEWIGRINPSNDDTVYSQKFKDRATLSLDRSSGTVHMELRSLTSEDSAVYYCARFGHASWYFDVWGAGTTVTVSS
VL: QIVLTQSPAIMSASPGEKVTMTCSARSSVIYMSWYQQKPGSSPRLLIYDTSHLASGVPVRFSGSGSGTFYSLIISRVEAEDAATYYCQQWSTYPLTFGAGTRLELNR
notes: Mouse variable domains on human IgG1 / kappa constant regions
B3: chimeric anti-human PD-L1 antibody Mab 1-02 (antibody, human IgG1, kappa, V domains shown)
VH: B2 VH with F106L
VL: B2 VL with V29I, P39T, Y70F, V77M, N106K
notes: as for B2
B4: chimeric anti-human PD-L1 antibody Mab 3-18 (antibody, human IgG1, kappa, V domains shown)
VH: EVHLQESGPSLVKPSQTLSLTCSVTGDSITSGYWNWIRQFPGNKLEYMGYVSYSGSTYYNPSLKSRISITRDTSKNQYYLQLSSVTTEDTATYYCANYYGDNWPFPLDYWGQGTSVIVSS
VL: DIVMTQAAPSVPVTPGESVSISCRSNKSLLHSNGNTYLYWFLQRPGQSPQLLIYRMSNLASGVPDRFSGSGSGTAFTLTISRVEAEDVGVYYCMQHLEYPFTFGGGTKLEIER
notes: as for B2
B5: chimeric anti-human PD-L1 antibody Mab 3-17 (antibody, human IgG1, kappa, V domains shown)
VH: B4 VH
VL: DIVMTQSPATLSVTPGDRVSLSCRASQSINGNLHWFQQKSHESPRLLIKYASQSISGIPSRFSGSGSGSDFTLRINSVEPEDVGVYYCQNGHGFPYTFGGGTKLEIKR
notes: as for B2
B6: chimeric anti-human PD-L1 antibody Mab 3-14 (antibody, human IgG1, kappa, V domains shown)
VH: QVQLQQSGAELVKPGTSVKLSCKASGYTFSMYYMFWVKQRPGQGLEWIGQINPSNGRTNFNEKFKSKATLTVDKSSTTAYMQLSSLTSEDSAVYYCTREISYDEFAYWGQGTLVTVSA
VL: DVVMTQTPLSLPVSLGDQASISCRSSQSLVHSNGNTYLHWYLQKPGQSPKLLIYRVSNRFSGVPDRFSGSGSGTDFTLKISRVEAEDLGIYFCSQSAHLPYTFGGGTKLEIKR
notes: as for B2
B7: chimeric anti-human PD-L1 antibody Mab 2-04 (antibody, human IgG1, kappa, V domains shown)
VH: QVQLQQSGAELARPGASVKMSCKASGYTFTDYAMHWIKQRPGQGLEWIGFIIPSGDHTDYNQNFKDRATLTADKSSNTAYMQLTSLTPDDSAVYFCARGHGFHLYVMDYWGQGTSVTVSS
VL: DIVMTQSPATLSVTPGDGVSLSCRASQSIADYLHWYQQKSHESPRLLIKYASQSISGIPSRFSGSGSGSDFTLSISSVEPEDVGVYFCQNGHSFPPTFGTGTKLELKR
notes: as for B2
B8: humanized anti-human PD-L1 antibody Hum-5 (antibody, human IgG1, kappa, V domains shown)
VH: EVQLVESGGGLVQPGGSLRLSCAASGFTFGGFGMHWVRQAPGKGLEWVSYITGDSSTIYYADRVRGRFTISRDNAKNSLYLQMNSLRAEDTAVYYCVRGPPGTWAYWGQGTLVTVSS
VL: EIVLTQSPATLSLSPGERATLSCRASESVEFYGTTLVQWYQQKPGQAPRLLIYGASNVESGIPARFSGSGSGTDFTLTISSLEPEDFAVYYCQQIRKVPWTFGQGTKVEIKR
B9: humanized anti-human PD-L1 antibody Hum-7 (antibody, human IgG1, kappa, V domains shown)
VH: B8 VH
VL: B8 VL with Y91F
B10: humanized anti-human PD-L1 antibody Hum-6 (antibody, human IgG1, kappa, V domains shown)
VH: B8 VH
VL: B8 VL with A47P

The binders below were run against human PD-L1 on cells (Raji cell line expressing human PD-L1; human PBMCs) (human, UniProt Q9NZQ7 19-290) (assay: cell-based or functional assay).
Chain of human PD-L1 on cells (Raji cell line expressing human PD-L1; human PBMCs) (Q9NZQ7 19-290): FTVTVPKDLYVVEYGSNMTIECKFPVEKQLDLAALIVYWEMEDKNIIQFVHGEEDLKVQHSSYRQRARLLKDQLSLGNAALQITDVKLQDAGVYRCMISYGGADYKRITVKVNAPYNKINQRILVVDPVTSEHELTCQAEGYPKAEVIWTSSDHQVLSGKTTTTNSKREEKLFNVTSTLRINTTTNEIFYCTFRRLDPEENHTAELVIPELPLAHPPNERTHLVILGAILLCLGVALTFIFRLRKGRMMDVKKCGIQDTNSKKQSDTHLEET

EC50(nM), IL-2 production by SEB stimulated human PBMCs [nM] | Binder
5.41 | B1

Each binder was assayed against T1, human PD-L1 (Sino biological, 10084-H08H) (human, UniProt Q9NZQ7 19-238) (assay: BLI (Octet Red), antibody captured on anti-human Fc sensors, human PD-L1 as analyte).
T1 construct: Bought recombinant protein used as analyte in BLI
T1 sequence (Q9NZQ7 19-238 limits assumed): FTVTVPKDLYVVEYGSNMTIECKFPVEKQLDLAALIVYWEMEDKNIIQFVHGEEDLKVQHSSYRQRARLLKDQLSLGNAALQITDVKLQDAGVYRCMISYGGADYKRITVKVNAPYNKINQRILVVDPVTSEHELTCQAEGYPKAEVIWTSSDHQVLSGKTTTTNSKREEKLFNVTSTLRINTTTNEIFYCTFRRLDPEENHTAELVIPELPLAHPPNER

Kd [nM] | koff [s⁻¹] | kon [M⁻¹ s⁻¹] | Binder
0.146 | 6.17e-05 | 423000 | B1
13 |  |  | B2
16 |  |  | B3
1.16 | 0.000408 | 351000 | B4
1.5 | 0.000626 | 417000 | B5
0.124 | 4.05e-05 | 327000 | B6
0.279 | 0.000241 | 864000 | B7

Molecular target: T1, human PD-L1 (Sino biological, …)
Test: as above
Remark: another data set of the same source

koff [s⁻¹] | kon [M⁻¹ s⁻¹] | Kd [nM] | Binder
1.19e-07 | 286000 |  | B1
3.92e-05 | 310000 | 0.126 | B8
1.28e-07 | 302000 | < 0.001 | B9
< 1e-07 | 292000 | < 0.001 | B10

What follows are binders tested against T2, cynomolgus PD-L1 (Sino biological, 90251-C08H) (cynomolgus, UniProt G7PSE7 19-238) (assay: BLI (Octet Red), antibody captured on anti-human Fc sensors, cynomolgus PD-L1 as analyte).
T2 construct: Bought recombinant protein used as analyte in BLI; not shown: C-terminal polyhistidine tag of the bought product (Sino Biological 90251-C08H)
T2 sequence (G7PSE7 entry or part of it C08H C08H limits assumed): as the sequence (Q9NZQ7 19-238 limits assumed) above, with A33T, A34S, S62N, R68Q, Q82R, F173L, T185A, T192I, H215L counted along it

Kd [nM] | koff [s⁻¹] | kon [M⁻¹ s⁻¹] | Binder
0.863 | 8.34e-05 | 96700 | B1
0.915 | 8.65e-05 | 94500 | B8
≤ 0.0011 | < 1e-07 | 73100 | B9
0.00208 | 1.33e-07 | 63900 | B10

The binders below were run against T3, Europium-conjugated human PD-L1 (human, UniProt Q9NZQ7 19-238, limits assumed, Europium conjugate (site not stated)) (assay: HTRF blocking assay: Europium-human PD-L1 with Alexa-647 human PD-1 as the blocked ligand, antibody titrated).
T3 construct: also called Europium-human PD-L1; PD-L1 (HTRF donor protein)
T3 sequence (Q9NZQ7 19-238 limits assumed): as the sequence (Q9NZQ7 19-238 limits assumed) above

IC50 (read off the curve) [µg/mL] | Binder
~0.3 | B7

Molecular target: T3, Europium-conjugated human PD-L1
Test: as above
Remark: another data set of the same source

IC50 (read off the curve) [µg/mL] | Binder
~0.2 | B1
~0.2 | B4
~0.2 | B5
~0.2 | B6

What follows are binders tested against T1, human PD-L1 (Sino biological, …) (assay: BLI (Octet Red), antibody captured on anti-human Fc sensors, human PD-L1 as analyte; Table 8 run, alongside humanized Hum-5/6/7).

Kd [nM] | Binder
< 0.001 | B1

Each binder was assayed against T3, Europium-conjugated human PD-L1 (assay: HTRF competition assay: Europium-human PD-L1 with Alexa-647-conjugated Mab 3-16 as competitor, unlabelled Mab 3-16 titrated).

IC50 (read off the curve) [µg/mL] | Binder
~0.2 | B1

Molecular target: T3, Europium-conjugated human PD-L1
Test: as above
Remark: another data set of the same source

IC50 (read off the curve) [µg/mL] | Binder
~0.2 | B1

Each binder was assayed against T3, Europium-conjugated human PD-L1 (assay: HTRF competition assay: Europium-human PD-L1 with Alexa-647-conjugated Mab 3-16 as competitor, unlabelled antibody titrated).

IC50 (read off the curve) [µg/mL] | Binder
~0.1 | B8
~0.1 | B9
~0.1 | B10
